Data from article PMC10786891, “Massively parallel profiling of RNA-targeting CRISPR-Cas13d”.
Residue numbers refer to the chain shown, from its start. Names and notes keep the numbering of the source.

T1: EsCas13d, nuclease-dead (Eubacterium siraeum, UniProt B0MS50, R295A;H300A;R849A;H854A)
T1 sequence: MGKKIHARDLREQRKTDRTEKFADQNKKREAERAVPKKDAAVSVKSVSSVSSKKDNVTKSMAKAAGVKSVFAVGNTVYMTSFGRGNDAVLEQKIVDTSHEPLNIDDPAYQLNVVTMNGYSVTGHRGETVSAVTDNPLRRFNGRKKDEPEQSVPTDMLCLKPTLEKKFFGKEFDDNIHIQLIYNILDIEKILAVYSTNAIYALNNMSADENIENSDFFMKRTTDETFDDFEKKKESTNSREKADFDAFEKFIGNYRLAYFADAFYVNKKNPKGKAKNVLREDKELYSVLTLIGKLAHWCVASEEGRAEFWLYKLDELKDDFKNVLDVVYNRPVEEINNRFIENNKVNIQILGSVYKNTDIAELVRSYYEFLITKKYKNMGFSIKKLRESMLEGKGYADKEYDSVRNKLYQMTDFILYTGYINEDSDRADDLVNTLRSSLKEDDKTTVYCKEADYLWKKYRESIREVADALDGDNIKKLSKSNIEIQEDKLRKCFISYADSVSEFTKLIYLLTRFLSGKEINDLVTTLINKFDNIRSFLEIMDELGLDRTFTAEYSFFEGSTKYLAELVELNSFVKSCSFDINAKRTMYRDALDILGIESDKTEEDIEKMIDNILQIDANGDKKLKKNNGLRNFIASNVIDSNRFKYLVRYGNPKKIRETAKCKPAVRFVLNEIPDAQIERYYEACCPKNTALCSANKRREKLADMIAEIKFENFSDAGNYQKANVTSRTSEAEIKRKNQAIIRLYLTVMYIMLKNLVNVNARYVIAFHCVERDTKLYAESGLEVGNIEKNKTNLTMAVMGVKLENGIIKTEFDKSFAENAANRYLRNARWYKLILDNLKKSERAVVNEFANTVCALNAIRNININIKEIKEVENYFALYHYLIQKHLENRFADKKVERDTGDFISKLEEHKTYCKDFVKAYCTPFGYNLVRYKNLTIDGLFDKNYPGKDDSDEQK

B1: target 1 MT 5'PFS UCG 3'PFS UAA (mixed)
RNA 1: CACCCGUGCAAAAAUGCAGGGGUCUAAAACUGAGCGGAUAACCUCUCUAUGG
RNA 2: GGGAAUGGAUCCACAUCUACGAAUUCUCGCCAUAGAGAGGUUAUCCGCUCAUAAAGAUCGGAAGAGCACACGU
B2: target 1 MT 5'PFS UAU 3'PFS UUU (mixed)
RNA 1: B1 RNA 1
RNA 2: B1 RNA 2 with C28A, G29U, A53U, A54U
B3: target 1 MT 5'PFS GCG 3'PFS CUU (mixed)
RNA 1: B1 RNA 1
RNA 2: B1 RNA 2 with U27G, U52C, A53U, A54U
B4: target 1 MT 5'PFS AAA 3'PFS UCG (mixed)
RNA 1: B1 RNA 1
RNA 2: B1 RNA 2 with U27A, C28A, G29A, A53C, A54G
B5: target 1 MT 5'PFS GUA 3'PFS AAA (mixed)
RNA 1: B1 RNA 1
RNA 2: B1 RNA 2 with U27G, C28U, G29A, U52A
B6: target 1 MT 5'PFS GGA 3'PFS AGG (mixed)
RNA 1: B1 RNA 1
RNA 2: B1 RNA 2 with U27G, C28G, G29A, U52A, A53G, A54G
B7: target 1 insA 3' of 13,insU 3' of 7 (mixed)
RNA 1: B1 RNA 1
RNA 2: GGGAAUGGAUCCACAUCUACGAAUUCGUACCAUAGAGAGAGUUAUCUCGCUCACCGAGAUCGGAAGAGCACACGU
B8: target 1 MT 5'PFS GCG 3'PFS CUC (mixed)
RNA 1: B1 RNA 1
RNA 2: B1 RNA 2 with U27G, U52C, A53U, A54C
B9: target 1 MT 5'PFS UCG 3'PFS UAU (mixed)
RNA 1: B1 RNA 1
RNA 2: B1 RNA 2 with A54U
B10: target 1 MT 5'PFS ACU 3'PFS UUU (mixed)
RNA 1: B1 RNA 1
RNA 2: B1 RNA 2 with U27A, G29U, A53U, A54U
B11: target 1 MT 5'PFS GUG 3'PFS CUG (mixed)
RNA 1: B1 RNA 1
RNA 2: B1 RNA 2 with U27G, C28U, U52C, A53U, A54G
B12: target 1 MT 5'PFS ACU 3'PFS UUG (mixed)
RNA 1: B1 RNA 1
RNA 2: B1 RNA 2 with U27A, G29U, A53U, A54G
B13: target 1 MT 5'PFS GUA 3'PFS AAG (mixed)
RNA 1: B1 RNA 1
RNA 2: B1 RNA 2 with U27G, C28U, G29A, U52A, A54G
B14: target 1 MT 5'PFS GGC 3'PFS GCU (mixed)
RNA 1: B1 RNA 1
RNA 2: B1 RNA 2 with U27G, C28G, G29C, U52G, A53C, A54U
B15: target 1 MT 5'PFS UAU 3'PFS UUC (mixed)
RNA 1: B1 RNA 1
RNA 2: B1 RNA 2 with C28A, G29U, A53U, A54C
B16: target 1 MT 5'PFS GAC 3'PFS AAG (mixed)
RNA 1: B1 RNA 1
RNA 2: B1 RNA 2 with U27G, C28A, G29C, U52A, A54G
B17: target 1 MT 5'PFS UCC 3'PFS UAG (mixed)
RNA 1: B1 RNA 1
RNA 2: B1 RNA 2 with G29C, A54G
B18: target 1 MT 5'PFS GGG 3'PFS GGG (mixed)
RNA 1: B1 RNA 1
RNA 2: B1 RNA 2 with U27G, C28G, U52G, A53G, A54G
B19: target 1 MT 5'PFS GCC 3'PFS CCU (mixed)
RNA 1: B1 RNA 1
RNA 2: B1 RNA 2 with U27G, G29C, U52C, A53C, A54U
B20: target 1 MT 5'PFS UCC 3'PFS AGA (mixed)
RNA 1: B1 RNA 1
RNA 2: B1 RNA 2 with G29C, U52A, A53G
B21: target 1 MT 5'PFS GUA 3'PFS AAU (mixed)
RNA 1: B1 RNA 1
RNA 2: B1 RNA 2 with U27G, C28U, G29A, U52A, A54U
B22: target 1 insC 3' of 13,insG 3' of 3 (mixed)
RNA 1: B1 RNA 1
RNA 2: B7 RNA 2 with A40C, U47C, C48G, G49C, C50U, U51G
B23: target 1 MT 5'PFS CAC 3'PFS CCG (mixed)
RNA 1: B1 RNA 1
RNA 2: B1 RNA 2 with U27C, C28A, G29C, U52C, A53C, A54G
B24: target 1 insC 3' of 12,insC 3' of 8 (mixed)
RNA 1: B1 RNA 1
RNA 2: B7 RNA 2 with A40G, G41C, U47C
B25: target 1 MT 5'PFS UAU 3'PFS UUA (mixed)
RNA 1: B1 RNA 1
RNA 2: B1 RNA 2 with C28A, G29U, A53U
B26: target 1 C6G,U8A (mixed)
RNA 1: B1 RNA 1
RNA 2: B1 RNA 2 with U27G, C28U, G29A, U44A, C46G, U52C, A53C, A54G
B27: target 1 MT 5'PFS GUA 3'PFS AAC (mixed)
RNA 1: B1 RNA 1
RNA 2: B1 RNA 2 with U27G, C28U, G29A, U52A, A54C
B28: target 1 MT 5'PFS UUA 3'PFS UUC (mixed)
RNA 1: B1 RNA 1
RNA 2: B1 RNA 2 with C28U, G29A, A53U, A54C
B29: target 1 MT 5'PFS GCG 3'PFS CUA (mixed)
RNA 1: B1 RNA 1
RNA 2: B1 RNA 2 with U27G, U52C, A53U
B30: target 1 MT 5'PFS AAA 3'PFS UCU (mixed)
RNA 1: B1 RNA 1
RNA 2: B1 RNA 2 with U27A, C28A, G29A, A53C, A54U
B31: target 1 MT 5'PFS UAC 3'PFS CCG (mixed)
RNA 1: B1 RNA 1
RNA 2: B1 RNA 2 with C28A, G29C, U52C, A53C, A54G
B32: target 1 MT 5'PFS GGU 3'PFS UCU (mixed)
RNA 1: B1 RNA 1
RNA 2: B1 RNA 2 with U27G, C28G, G29U, A53C, A54U
B33: target 1 MT 5'PFS UGU 3'PFS CAA (mixed)
RNA 1: B1 RNA 1
RNA 2: B1 RNA 2 with C28G, G29U, U52C
B34: target 1 MT 5'PFS GGG 3'PFS GGC (mixed)
RNA 1: B1 RNA 1
RNA 2: B1 RNA 2 with U27G, C28G, U52G, A53G, A54C
B35: target 1 MT 5'PFS GCG 3'PFS CUG (mixed)
RNA 1: B1 RNA 1
RNA 2: B1 RNA 2 with U27G, U52C, A53U, A54G
B36: target 1 MT 5'PFS ACU 3'PFS UUA (mixed)
RNA 1: B1 RNA 1
RNA 2: B1 RNA 2 with U27A, G29U, A53U
B37: target 1 MT 5'PFS GAC 3'PFS CCG (mixed)
RNA 1: B1 RNA 1
RNA 2: B1 RNA 2 with U27G, C28A, G29C, U52C, A53C, A54G
B38: target 1 MT 5'PFS UUA 3'PFS UUG (mixed)
RNA 1: B1 RNA 1
RNA 2: B1 RNA 2 with C28U, G29A, A53U, A54G
B39: target 1 MT 5'PFS UUA 3'PFS UUA (mixed)
RNA 1: B1 RNA 1
RNA 2: B1 RNA 2 with C28U, G29A, A53U

What follows are binders tested against T1, EsCas13d, nuclease-dead (assay: crRNA (strand 1, pre-loaded); Mg2+; 40 mM Tris-HCl pH 7.5, 150 mM NaCl, 6 mM MgCl2, 1 mM DTT, 0.1% Tween-20, 0.2 mg/ml BSA; 25 C; 10 min per concentration, then washed). Details: tags: His6-TwinStrep-SUMO cleaved; N-terminal SNAP kept (SNAP-Surface 488); label: 3' end held by stalled T7 RNA polymerase.

Binder	Kd [nM]
B1	86.5 ± 38.5
B2	31 ± 7.5
B3	15.6 ± 3.75
B4	15.2 ± 3.7
B5	26.4 ± 3.45
B6	31 ± 4.5
B7	11.2 ± 0.8
B8	~43
B9	27 ± 5.5
B10	39.5 ± 15.5
B11	10.3 ± 0.6
B12	46 ± 15
B13	19.1 ± 1.2
B14	7.25 ± 1.75
B15	22.5 ± 6
B16	50.5 ± 22.5
B17	49 ± 22.5
B18	65.5 ± 14
B19	8.9 ± 3
B20	~60

Binder	Kd [nM]
B21	17.8 ± 1.5
B22	5.58 ± 0.3
B23	9.7 ± 2.45
B24	32.1 ± 2.8
B25	18.1 ± 3.15
B26	13.8 ± 0.6
B27	20.4 ± 1.55
B28	17.5 ± 3.9
B29	15.7 ± 3.15
B30	25 ± 5.5
B31	14.5 ± 6
B32	34 ± 8.5
B33	~90
B34	26.5 ± 5
B35	10.7 ± 1.8
B36	52.5 ± 21
B37	13.8 ± 3
B38	11.8 ± 1.2
B39	30.5 ± 5
